PMC3658134
[ ]: non-standard residue; d: D form. Sec = N[C@@H](C[SeH])C(=O)O

Substrate: O=C1NC(=O)C(=O)C(=O)N1
Test: Substrate specificity, NADPH consumption, wild-type TGR
Format: biochemical, Schistosoma mansoni
Settings: pH 7.4; 25.0 °C

B1: wild-type TGR (SmTGR) (Schistosoma mansoni) (protein)
chain: MPPADGTSQWLRKTVDSAAVILFSKTTCPYCKKVKDVLAEAKIKHATIELDQLSNGSAIQKCLASFSKIETVPQMFVRGKFIGDSQTVLKYYSNDELAGIVNESKYDYDLIVIGGGSGGLAAGKEAAKYGAKTAVLDYVEPTPIGTTWGLGGTCVNVGCIPKKLMHQAGLLSHALEDAEHFGWSLDRSKISHNWSTMVEGVQSHIGSLNWGYKVALRDNQVTYLNAKGRLISPHEVQITDKNQKVSTITGNKIILATGERPKYPEIPGAVEYGITSDDLFSLPYFPGKTLVIGASYVALECAGFLASLGGDVTVMVRSILLRGFDQQMAEKVGDYMENHGVKFAKLCVPDEIKQLKVVDTENNKPGLLLVKGHYTDGKKFEEEFETVIFAVGREPQLSKVLCETVGVKLDKNGRVVCTDDEQTTVSNVYAIGDINAGKPQLTPVAIQAGRYLARRLFAGATELTDYSNVATTVFTPLEYGACGLSEEDAIEKYGDKDIEVYHSNFKPLEWTVAHREDNVCYMKLVCRKSDNMRVLGLHVLGPNAGEITQGYAVAIKMGATKADFDRTIGIHPTCSETFTTLHVTKKSGVSPIVSGC[Sec]G
modifications: not fully specified
For B1, the Km was 940 ± 90 µM and the kcat was 27.7 ± 0.8 s⁻¹.
